Data as given in patent publication JP2008058208A (dated 2008).

B1: 陽性クローン株No.20のファージ抗体 (scFv No.20 displayed on M13 phage) (scFv)
scFv: MAQVKLPESGAELVKPGASVKLSCTPSGFNIKDTYIHWVRQRPGQGLEWIGRIDPANGHTRYAPKFQGKATLTADASSNTAYLHLSSLTSEDTAVYYCPRIVWYSGGYAMDYWGQGTTVTVSSGGGGSGGGGSGGGGSDIELTQSPSSMYASLGERVTITCKASQDINSYLSWFQQKPGKSPKTLIYRANRLVDGVPSRFSGSGSGQDYSLTISSLKYEDMGIYYCLQYDEFPLTFGGGTKLEIKRAA
notes: not shown: C-terminal fusion to the phage coat protein from phagemid pCANTAB5E; not spelled out
B2: 陽性クローン株No.40のファージ抗体 (scFv No.40 displayed on M13 phage) (scFv)
scFv: MAQVKLQQSGAEVVKPGASVKLSCKASGYTFIFYHIYWVKQRPGQGLEWIGGINPRSGGTNLNEKFKSKATLTVDKSSSTAYMQLNGLTSEDSAFYYCTRSGTTYDYALDYWGQGTTVTVSSGGGGSGGGGSGGGGSDIELTQSPAIMAASLGQKVTMTCSASSSMSSSYLHWYQQKSGASPKPLIHRTSTLASGVPARFSGSGSGTSYSLTISSVEAEDDATYYCQQWSGYPLTFGGGTKLEIKRAAA
notes: as for B1
B3: 抗CRPscFv抗体No.40 (His-tagged scFv, His40) (scFv)
scFv: MAQVKLQQSGAEVVKPGASVKLSCKASGYTFIFYHIYWVKQRPGQGLEWIGGINPRSGGTNLNEKFKSKATLTVDKSSSTAYMQLNGLTSEDSAFYYCTRSGTTYDYALDYWGQGTTVTVSSGGGGSGGGGSGGGGSDIELTQSPAIMAASLGQKVTMTCSASSSMSSSYLHWYQQKSGASPKPLIHRTSTLASGVPARFSGSGSGTSYSLTISSVEAEDDATYYCQQWSGYPLTFGGGTKLEIKRAAA
notes: Mouse scFv (VH-(G4S)3 linker-VL) from an immune phage library, expressed in E. coli HB2151 and purified by the His tag; also called No.40抗体; not shown: C-terminal 6x histidine tag added by a standard method
B4: 抗CRPscFv抗体No.20 (His-tagged scFv, His20) (scFv)
scFv: MAQVKLPESGAELVKPGASVKLSCTPSGFNIKDTYIHWVRQRPGQGLEWIGRIDPANGHTRYAPKFQGKATLTADASSNTAYLHLSSLTSEDTAVYYCPRIVWYSGGYAMDYWGQGTTVTVSSGGGGSGGGGSGGGGSDIELTQSPSSMYASLGERVTITCKASQDINSYLSWFQQKPGKSPKTLIYRANRLVDGVPSRFSGSGSGQDYSLTISSLKYEDMGIYYCLQYDEFPLTFGGGTKLEIKRAA
notes: Mouse scFv (VH-(G4S)3 linker-VL) from an immune phage library, expressed in E. coli HB2151 and purified by the His tag; also called No.20抗体; His20 scFv抗体; not shown: C-terminal 6x histidine tag added by a standard method

Tests used:
C−反応性タンパク(CRP), ヒトCRP抗原 [1] = molecular target: T1, C−反応性タンパク(CRP), ヒトCRP抗原 (human, UniProt P02741 19-224); assay: phage ELISA on plate-coated CRP, detected with HRP/anti-M13
T1 sequence (looked up): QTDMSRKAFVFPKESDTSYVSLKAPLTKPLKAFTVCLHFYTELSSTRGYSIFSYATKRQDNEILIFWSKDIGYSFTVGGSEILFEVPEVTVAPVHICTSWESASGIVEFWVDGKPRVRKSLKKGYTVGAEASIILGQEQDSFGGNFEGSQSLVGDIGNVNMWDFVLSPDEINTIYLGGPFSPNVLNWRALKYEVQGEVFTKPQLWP

C−反応性タンパク(CRP), ヒトCRP抗原 [2] = molecular target: T1, C−反応性タンパク(CRP), ヒトCRP抗原; assay: ELISA of His-tag purified scFv on CRP
Protein A = molecular target: T2, Protein A (Staphylococcus aureus, UniProt P38507 37-477); assay: immunochromatography test strip, His20 as capture and as gold-colloid label; samples of Protein A and S. aureus cell suspensions
T2 construct: also called プロテインA; Staphylococcus aureusが産生するProtein A

Binder	binding result (C−反応性タンパク(CRP), ヒトCRP抗原 [1])	also measured
B1	binds	–
B2	binds	–
B3	–	binding result (C−反応性タンパク(CRP), ヒトCRP抗原 [2]): binds
B4	–	binding result (Protein A): no binding
